{
  "source": "patent US20240190987A1",
  "about": "(TIGATX, published 2024)",
  "data": [
    {"molecular_target": "T1, Ab0786", "T1 construct": "Fab, His-Tag, Avi-Tag; Ab0785 + HC I50M+S58N; also called LS2A R3M1 Fab; biotinylated-Ab0786", "test": "BLI +indinavir", "units": {"Kd": "nM"}, "values": [
      {"binder": "Ab1071 (Fab, V domains shown, also called LS2B R5M2 Fab) VH: EVQLVESGGGLVQPGGSLRLSCAASGFDFSSYSIHWVRQAPGKGLEWVASISPYYGSTYYADSVKGRFTISADTSKNTAYLQMNSLRAEDTAVYYCARYYEWYKYDLYAGSLGFDYWGQGTLVTVSS VL: DIQMTQSPSSLSASVGDRVTITCRASQSVSSAVAWYQQKPGKAPKLLIYSASSLYSGVPSRFSGSRSGTDFTLTISSLQPEDFATYYCQQGGYSLITFGQGTKVEIK", "Kd": 79}
    ]},
    {"molecular_target": "T2, Ab0787", "T2 construct": "Fab, His-Tag, Avi-Tag; Ab0785 + HC I50M; also called LS2A R3M2; Ab787", "test": "BLI 1-pt +indinavir", "units": {"Kd": "nM"}, "values": [
      {"binder": "Ab0936 (antibody, V domains shown, also called LS2B R6M2) VH: EVQLVESGGGLVQPGGSLRLSCAASGFDFSSYSIHWVRQAPGKGLEWVAAISPYYGSTYYADSVKGRFTISADTSKNTAYLQMNSLRAEDTAVYYCARYYEWYKYDLYLGSLGFDYWGQGTLVTVSS VL: DIQMTQSPSSLSASVGDRVTITCRASQSVSSAVAWYQQKPGKAPKLLIYSASSLYSGVPSRFSGSRSGTDFTLTISSLQPEDFATYYCQQGGYSLITFGQGTKVEIK", "Kd": 5.7},
      {"binder": "Ab0937 (antibody, V domains shown, also called LS2B R6M3) VH: EVQLVESGGGLVQPGGSLRLSCAASGFDFSSYSIHWVRQAPGKGLEWVASASPYYGSTYYADSVKGRFTISADTSKNTAYLQMNSLRAEDTAVYYCARYYEWYKYDLYLGSLGFDYWGQGTLVTVSS VL: DIQMTQSPSSLSASVGDRVTITCRASQSVSSAVAWYQQKPGKAPKLLIYSASSLYSGVPSRFSGSRSGTDFTLTISSLQPEDFATYYCQQGGYSLITFGQGTKVEIK", "Kd": 42},
      {"binder": "Ab0939 (antibody, V domains shown, also called LS2B R6M5) VH: EVQLVESGGGLVQPGGSLRLSCAASGFDFSSYSIHWVRQAPGKGLEWVASISAYYGSTYYADSVKGRFTISADTSKNTAYLQMNSLRAEDTAVYYCARYYEWYKYDLYLGSLGFDYWGQGTLVTVSS VL: DIQMTQSPSSLSASVGDRVTITCRASQSVSSAVAWYQQKPGKAPKLLIYSASSLYSGVPSRFSGSRSGTDFTLTISSLQPEDFATYYCQQGGYSLITFGQGTKVEIK", "Kd": 40},
      {"binder": "Ab0941 (antibody, V domains shown, also called LS2B R6M7) VH: EVQLVESGGGLVQPGGSLRLSCAASGFDFSSYSIHWVRQAPGKGLEWVASISPYYGATYYADSVKGRFTISADTSKNTAYLQMNSLRAEDTAVYYCARYYEWYKYDLYLGSLGFDYWGQGTLVTVSS VL: DIQMTQSPSSLSASVGDRVTITCRASQSVSSAVAWYQQKPGKAPKLLIYSASSLYSGVPSRFSGSRSGTDFTLTISSLQPEDFATYYCQQGGYSLITFGQGTKVEIK", "Kd": 49},
      {"binder": "Ab0944 (antibody, V domains shown, also called LS2B R6M10) VH: EVQLVESGGGLVQPGGSLRLSCAASGFDFSSYSIHWVRQAPGKGLEWVASISPYYGSTYYADSVKGRFTISADTSKNTAYLQMNSLRAEDTAVYYCARYYEWYKYALYLGSLGFDYWGQGTLVTVSS VL: DIQMTQSPSSLSASVGDRVTITCRASQSVSSAVAWYQQKPGKAPKLLIYSASSLYSGVPSRFSGSRSGTDFTLTISSLQPEDFATYYCQQGGYSLITFGQGTKVEIK", "Kd": 100},
      {"binder": "Ab0953 (antibody, V domains shown, also called LS2B R6M22) VH: EVQLVESGGGLVQPGGSLRLSCAASGFDFSSYSIHWVRQAPGKGLEWVASISPYYGSTYYADSVKGRFTISADTSKNTAYLQMNSLRAEDTAVYYCARYYEWYKYDLYLGSLGFDYWGQGTLVTVSS VL: DIQMTQSPSSLSASVGDRVTITCRASQSVSSAVAWYQQKPGKAPKLLIYSASSLYSGVPSRFSGSRSGTDFTLTISSLQPEDFATYYCQQGAYSLITFGQGTKVEIK", "Kd": 50},
      {"binder": "Ab0958 (antibody, V domains shown, also called LS2B R6M27) VH: EVQLVESGGGLVQPGGSLRLSCAASGFDFSSYSIHWVRQAPGKGLEWVASISPYYGSTYYADSVKGRFTISADTSKNTAYLQMNSLRAEDTAVYYCARYYEWYKYDLYLGSLGFDYWGQGTLVTVSS VL: DIQMTQSPSSLSASVGDRVTITCRASQSVSSAVAWYQQKPGKAPKLLIYSASSLYSGVPSRFSGSRSGTDFTLTISSLQPEDFATYYCQQGGYSLIAFGQGTKVEIK", "Kd": 42}
    ]},
    {"molecular_target": "T2, Ab0787", "test": "BLI 5-pt +indinavir", "units": {"Kd": "nM"}, "values": [
      {"binder": "Ab0936 (antibody, V domains shown, also called LS2B R6M2) VH: EVQLVESGGGLVQPGGSLRLSCAASGFDFSSYSIHWVRQAPGKGLEWVAAISPYYGSTYYADSVKGRFTISADTSKNTAYLQMNSLRAEDTAVYYCARYYEWYKYDLYLGSLGFDYWGQGTLVTVSS VL: DIQMTQSPSSLSASVGDRVTITCRASQSVSSAVAWYQQKPGKAPKLLIYSASSLYSGVPSRFSGSRSGTDFTLTISSLQPEDFATYYCQQGGYSLITFGQGTKVEIK", "Kd": 1}
    ]}
  ]
}
